For the experiment, the target named is T1, HER2 on HER2-positive AU565 cells (human, UniProt P04626 23-1255).
T1 construct: whole, on cells
Kind of experiment: FACS, AU565 cells. How it is done:
Cells (1×10^5 cells/well) were incubated in polystyrene 96-well round-bottom plates (Greiner bio-one 650101) with serial dilutions of antibody preparations (range 2 to 10000 ng/mL in 4-fold dilutions for Jurkat cells and range 1 to 3000 ng/mL in 4-fold dilutions for on AU565 cells) in 100 μL PBS/0.1% BSA/0.02% azide at 4° C. for 30 min.
After washing twice in PBS/0.1% BSA/0.02% azide, cells were incubated in 100 μL with secondary antibody at 4° C. for 30 min. As a secondary antibody, R-Phycoerythrin (PE)-conjugated goat-anti-human IgG F(ab′)₂ (109-116-098, Jackson ImmunoResearch Laboratories, Inc., West Grove, Pa.) diluted 1/100 in PBS/0.1% BSA/0.02% azide, was used for all experiments. Next, cells were washed twice in PBS/0.1% BSA/0.02% azide, resuspended in 150 μL PBS/0.1% BSA/0.02% azide and analyzed on a FACS CantoII (BD Biosciences). Binding curves were analyzed using non-linear regression (sigmoidal dose-response with variable slope) using GraphPad Prism V5.04 software (GraphPad Software, San Diego, Calif., USA).

B1: IgG1-HER2 (IgG1-HER2-169-K409R), wild-type Fc (antibody)
heavy: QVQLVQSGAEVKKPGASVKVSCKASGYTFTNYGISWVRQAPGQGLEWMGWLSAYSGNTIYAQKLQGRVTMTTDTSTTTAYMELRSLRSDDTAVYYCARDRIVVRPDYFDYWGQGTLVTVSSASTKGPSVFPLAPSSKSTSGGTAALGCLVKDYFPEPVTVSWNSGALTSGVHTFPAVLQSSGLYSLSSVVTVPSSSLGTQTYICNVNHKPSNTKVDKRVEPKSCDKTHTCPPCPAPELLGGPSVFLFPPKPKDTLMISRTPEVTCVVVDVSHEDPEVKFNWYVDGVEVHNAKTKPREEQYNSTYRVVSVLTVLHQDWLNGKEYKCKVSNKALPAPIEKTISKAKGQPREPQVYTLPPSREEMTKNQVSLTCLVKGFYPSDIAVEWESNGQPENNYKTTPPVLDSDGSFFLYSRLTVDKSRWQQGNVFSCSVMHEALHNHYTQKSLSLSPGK
VL: EIVLTQSPATLSLSPGERATLSCRASQSVSSYLAWYQQKPGQAPRLLIYDASNRATGIPARFSGSGSGTDFTLTISSLEPEDFAVYYCQQRSNWPRTFGQGTKVEIK
For the molecule B1, the binding result is recorded as “binds”.

B2: IgG1-HER2-N297Q (IgG1-HER2-169-K409R with N297Q) (antibody)
heavy: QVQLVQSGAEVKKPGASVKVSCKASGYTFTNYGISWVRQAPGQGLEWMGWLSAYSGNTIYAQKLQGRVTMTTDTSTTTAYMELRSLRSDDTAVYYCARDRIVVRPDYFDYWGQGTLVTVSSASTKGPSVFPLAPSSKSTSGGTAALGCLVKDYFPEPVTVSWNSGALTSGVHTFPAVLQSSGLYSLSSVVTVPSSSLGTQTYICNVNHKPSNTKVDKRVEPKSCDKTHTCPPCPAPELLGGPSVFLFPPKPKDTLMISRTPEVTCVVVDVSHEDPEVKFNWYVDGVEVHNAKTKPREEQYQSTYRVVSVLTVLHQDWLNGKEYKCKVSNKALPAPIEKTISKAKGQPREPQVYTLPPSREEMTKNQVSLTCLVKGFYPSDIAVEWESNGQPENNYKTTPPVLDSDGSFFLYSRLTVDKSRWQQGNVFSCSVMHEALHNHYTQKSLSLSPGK
VL: EIVLTQSPATLSLSPGERATLSCRASQSVSSYLAWYQQKPGQAPRLLIYDASNRATGIPARFSGSGSGTDFTLTISSLEPEDFAVYYCQQRSNWPRTFGQGTKVEIK
notes: IgG1, K409R; also called NQ
With B2, the binding result was “binds”.

B3: IgG1-HER2-DA (IgG1-HER2-169-K409R with D265A) (antibody)
heavy: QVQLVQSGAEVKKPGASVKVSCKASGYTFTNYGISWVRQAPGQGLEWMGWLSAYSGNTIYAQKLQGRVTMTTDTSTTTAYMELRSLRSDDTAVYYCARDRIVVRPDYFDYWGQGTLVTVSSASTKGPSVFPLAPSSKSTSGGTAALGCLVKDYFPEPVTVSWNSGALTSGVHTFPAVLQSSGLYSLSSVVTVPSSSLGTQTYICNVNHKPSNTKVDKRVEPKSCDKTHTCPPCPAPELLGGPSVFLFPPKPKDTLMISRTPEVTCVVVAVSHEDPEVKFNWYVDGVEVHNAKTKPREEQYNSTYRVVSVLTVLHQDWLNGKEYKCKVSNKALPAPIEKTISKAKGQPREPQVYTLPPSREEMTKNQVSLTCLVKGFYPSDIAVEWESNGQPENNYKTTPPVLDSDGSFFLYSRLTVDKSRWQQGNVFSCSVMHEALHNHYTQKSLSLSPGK
VL: EIVLTQSPATLSLSPGERATLSCRASQSVSSYLAWYQQKPGQAPRLLIYDASNRATGIPARFSGSGSGTDFTLTISSLEPEDFAVYYCQQRSNWPRTFGQGTKVEIK
notes: IgG1, K409R
Consider B3, for which the binding result is given as “binds”.

B4: IgG1-HER2-… (IgG1-HER2-169-K409R with L234F/L235E/D265A/N297Q/P331S) (antibody)
heavy: QVQLVQSGAEVKKPGASVKVSCKASGYTFTNYGISWVRQAPGQGLEWMGWLSAYSGNTIYAQKLQGRVTMTTDTSTTTAYMELRSLRSDDTAVYYCARDRIVVRPDYFDYWGQGTLVTVSSASTKGPSVFPLAPSSKSTSGGTAALGCLVKDYFPEPVTVSWNSGALTSGVHTFPAVLQSSGLYSLSSVVTVPSSSLGTQTYICNVNHKPSNTKVDKRVEPKSCDKTHTCPPCPAPEFEGGPSVFLFPPKPKDTLMISRTPEVTCVVVAVSHEDPEVKFNWYVDGVEVHNAKTKPREEQYQSTYRVVSVLTVLHQDWLNGKEYKCKVSNKALPASIEKTISKAKGQPREPQVYTLPPSREEMTKNQVSLTCLVKGFYPSDIAVEWESNGQPENNYKTTPPVLDSDGSFFLYSRLTVDKSRWQQGNVFSCSVMHEALHNHYTQKSLSLSPGK
VL: EIVLTQSPATLSLSPGERATLSCRASQSVSSYLAWYQQKPGQAPRLLIYDASNRATGIPARFSGSGSGTDFTLTISSLEPEDFAVYYCQQRSNWPRTFGQGTKVEIK
notes: IgG1, K409R
For B4, the binding result was “binds”.

B5: IgG1-HER2-DAPS (IgG1-HER2-169-K409R with D265A/P331S) (antibody)
heavy: QVQLVQSGAEVKKPGASVKVSCKASGYTFTNYGISWVRQAPGQGLEWMGWLSAYSGNTIYAQKLQGRVTMTTDTSTTTAYMELRSLRSDDTAVYYCARDRIVVRPDYFDYWGQGTLVTVSSASTKGPSVFPLAPSSKSTSGGTAALGCLVKDYFPEPVTVSWNSGALTSGVHTFPAVLQSSGLYSLSSVVTVPSSSLGTQTYICNVNHKPSNTKVDKRVEPKSCDKTHTCPPCPAPELLGGPSVFLFPPKPKDTLMISRTPEVTCVVVAVSHEDPEVKFNWYVDGVEVHNAKTKPREEQYNSTYRVVSVLTVLHQDWLNGKEYKCKVSNKALPASIEKTISKAKGQPREPQVYTLPPSREEMTKNQVSLTCLVKGFYPSDIAVEWESNGQPENNYKTTPPVLDSDGSFFLYSRLTVDKSRWQQGNVFSCSVMHEALHNHYTQKSLSLSPGK
VL: EIVLTQSPATLSLSPGERATLSCRASQSVSSYLAWYQQKPGQAPRLLIYDASNRATGIPARFSGSGSGTDFTLTISSLEPEDFAVYYCQQRSNWPRTFGQGTKVEIK
notes: IgG1, K409R
As for B5, the binding result was “binds”.

B6: IgG1-HER2-DANQ (IgG1-HER2-169-K409R with D265A/N297Q) (antibody)
heavy: QVQLVQSGAEVKKPGASVKVSCKASGYTFTNYGISWVRQAPGQGLEWMGWLSAYSGNTIYAQKLQGRVTMTTDTSTTTAYMELRSLRSDDTAVYYCARDRIVVRPDYFDYWGQGTLVTVSSASTKGPSVFPLAPSSKSTSGGTAALGCLVKDYFPEPVTVSWNSGALTSGVHTFPAVLQSSGLYSLSSVVTVPSSSLGTQTYICNVNHKPSNTKVDKRVEPKSCDKTHTCPPCPAPELLGGPSVFLFPPKPKDTLMISRTPEVTCVVVAVSHEDPEVKFNWYVDGVEVHNAKTKPREEQYQSTYRVVSVLTVLHQDWLNGKEYKCKVSNKALPAPIEKTISKAKGQPREPQVYTLPPSREEMTKNQVSLTCLVKGFYPSDIAVEWESNGQPENNYKTTPPVLDSDGSFFLYSRLTVDKSRWQQGNVFSCSVMHEALHNHYTQKSLSLSPGK
VL: EIVLTQSPATLSLSPGERATLSCRASQSVSSYLAWYQQKPGQAPRLLIYDASNRATGIPARFSGSGSGTDFTLTISSLEPEDFAVYYCQQRSNWPRTFGQGTKVEIK
notes: IgG1, K409R
In the case of B6, the binding result is recorded as “binds”.

B7: IgG1-HER2-LALA (IgG1-HER2-169-K409R with L234A/L235A) (antibody)
heavy: QVQLVQSGAEVKKPGASVKVSCKASGYTFTNYGISWVRQAPGQGLEWMGWLSAYSGNTIYAQKLQGRVTMTTDTSTTTAYMELRSLRSDDTAVYYCARDRIVVRPDYFDYWGQGTLVTVSSASTKGPSVFPLAPSSKSTSGGTAALGCLVKDYFPEPVTVSWNSGALTSGVHTFPAVLQSSGLYSLSSVVTVPSSSLGTQTYICNVNHKPSNTKVDKRVEPKSCDKTHTCPPCPAPEAAGGPSVFLFPPKPKDTLMISRTPEVTCVVVDVSHEDPEVKFNWYVDGVEVHNAKTKPREEQYNSTYRVVSVLTVLHQDWLNGKEYKCKVSNKALPAPIEKTISKAKGQPREPQVYTLPPSREEMTKNQVSLTCLVKGFYPSDIAVEWESNGQPENNYKTTPPVLDSDGSFFLYSRLTVDKSRWQQGNVFSCSVMHEALHNHYTQKSLSLSPGK
VL: EIVLTQSPATLSLSPGERATLSCRASQSVSSYLAWYQQKPGQAPRLLIYDASNRATGIPARFSGSGSGTDFTLTISSLEPEDFAVYYCQQRSNWPRTFGQGTKVEIK
notes: IgG1, K409R
On to B7, for which the binding result is “binds”.

B8: IgG1-HER2-LFLEPS (IgG1-HER2-169-K409R with L234F/L235E/P331S) (antibody)
heavy: QVQLVQSGAEVKKPGASVKVSCKASGYTFTNYGISWVRQAPGQGLEWMGWLSAYSGNTIYAQKLQGRVTMTTDTSTTTAYMELRSLRSDDTAVYYCARDRIVVRPDYFDYWGQGTLVTVSSASTKGPSVFPLAPSSKSTSGGTAALGCLVKDYFPEPVTVSWNSGALTSGVHTFPAVLQSSGLYSLSSVVTVPSSSLGTQTYICNVNHKPSNTKVDKRVEPKSCDKTHTCPPCPAPEFEGGPSVFLFPPKPKDTLMISRTPEVTCVVVDVSHEDPEVKFNWYVDGVEVHNAKTKPREEQYNSTYRVVSVLTVLHQDWLNGKEYKCKVSNKALPASIEKTISKAKGQPREPQVYTLPPSREEMTKNQVSLTCLVKGFYPSDIAVEWESNGQPENNYKTTPPVLDSDGSFFLYSRLTVDKSRWQQGNVFSCSVMHEALHNHYTQKSLSLSPGK
VL: EIVLTQSPATLSLSPGERATLSCRASQSVSSYLAWYQQKPGQAPRLLIYDASNRATGIPARFSGSGSGTDFTLTISSLEPEDFAVYYCQQRSNWPRTFGQGTKVEIK
notes: IgG1, K409R
Turning to B8, the binding result is recorded as “binds”.

B9: IgG1-HER2-LFLENQ (IgG1-HER2-169-K409R with L234F/L235E/N297Q) (antibody)
heavy: QVQLVQSGAEVKKPGASVKVSCKASGYTFTNYGISWVRQAPGQGLEWMGWLSAYSGNTIYAQKLQGRVTMTTDTSTTTAYMELRSLRSDDTAVYYCARDRIVVRPDYFDYWGQGTLVTVSSASTKGPSVFPLAPSSKSTSGGTAALGCLVKDYFPEPVTVSWNSGALTSGVHTFPAVLQSSGLYSLSSVVTVPSSSLGTQTYICNVNHKPSNTKVDKRVEPKSCDKTHTCPPCPAPEFEGGPSVFLFPPKPKDTLMISRTPEVTCVVVDVSHEDPEVKFNWYVDGVEVHNAKTKPREEQYQSTYRVVSVLTVLHQDWLNGKEYKCKVSNKALPAPIEKTISKAKGQPREPQVYTLPPSREEMTKNQVSLTCLVKGFYPSDIAVEWESNGQPENNYKTTPPVLDSDGSFFLYSRLTVDKSRWQQGNVFSCSVMHEALHNHYTQKSLSLSPGK
VL: EIVLTQSPATLSLSPGERATLSCRASQSVSSYLAWYQQKPGQAPRLLIYDASNRATGIPARFSGSGSGTDFTLTISSLEPEDFAVYYCQQRSNWPRTFGQGTKVEIK
notes: IgG1, K409R
Take B9: the binding result was “binds”.

B10: IgG1-HER2-LFLEDA (IgG1-HER2-169-K409R with L234F/L235E/D265A) (antibody, name in EU numbering)
heavy: QVQLVQSGAEVKKPGASVKVSCKASGYTFTNYGISWVRQAPGQGLEWMGWLSAYSGNTIYAQKLQGRVTMTTDTSTTTAYMELRSLRSDDTAVYYCARDRIVVRPDYFDYWGQGTLVTVSSASTKGPSVFPLAPSSKSTSGGTAALGCLVKDYFPEPVTVSWNSGALTSGVHTFPAVLQSSGLYSLSSVVTVPSSSLGTQTYICNVNHKPSNTKVDKRVEPKSCDKTHTCPPCPAPEFEGGPSVFLFPPKPKDTLMISRTPEVTCVVVAVSHEDPEVKFNWYVDGVEVHNAKTKPREEQYNSTYRVVSVLTVLHQDWLNGKEYKCKVSNKALPAPIEKTISKAKGQPREPQVYTLPPSREEMTKNQVSLTCLVKGFYPSDIAVEWESNGQPENNYKTTPPVLDSDGSFFLYSRLTVDKSRWQQGNVFSCSVMHEALHNHYTQKSLSLSPGK
VL: EIVLTQSPATLSLSPGERATLSCRASQSVSSYLAWYQQKPGQAPRLLIYDASNRATGIPARFSGSGSGTDFTLTISSLEPEDFAVYYCQQRSNWPRTFGQGTKVEIK
notes: IgG1, K409R
On to B10, for which the binding result was “binds”.

B11: IgG1-HER2-LFLE (IgG1-HER2-169-K409R with L234F/L235E) (antibody)
heavy: QVQLVQSGAEVKKPGASVKVSCKASGYTFTNYGISWVRQAPGQGLEWMGWLSAYSGNTIYAQKLQGRVTMTTDTSTTTAYMELRSLRSDDTAVYYCARDRIVVRPDYFDYWGQGTLVTVSSASTKGPSVFPLAPSSKSTSGGTAALGCLVKDYFPEPVTVSWNSGALTSGVHTFPAVLQSSGLYSLSSVVTVPSSSLGTQTYICNVNHKPSNTKVDKRVEPKSCDKTHTCPPCPAPEFEGGPSVFLFPPKPKDTLMISRTPEVTCVVVDVSHEDPEVKFNWYVDGVEVHNAKTKPREEQYNSTYRVVSVLTVLHQDWLNGKEYKCKVSNKALPAPIEKTISKAKGQPREPQVYTLPPSREEMTKNQVSLTCLVKGFYPSDIAVEWESNGQPENNYKTTPPVLDSDGSFFLYSRLTVDKSRWQQGNVFSCSVMHEALHNHYTQKSLSLSPGK
VL: EIVLTQSPATLSLSPGERATLSCRASQSVSSYLAWYQQKPGQAPRLLIYDASNRATGIPARFSGSGSGTDFTLTISSLEPEDFAVYYCQQRSNWPRTFGQGTKVEIK
notes: IgG1, K409R
Regarding B11, the binding result is reported as “binds”.

The record behind these values is patent US20150337049A1 (Genmab, published 2015).
